Results as given in PMC4263767, “IL-28B is a Key Regulator of B- and T-Cell Vaccine Responses against Influenza” (PLoS Pathogens, 2014).

Key:
[1] = system: PBMCs from healthy volunteers; experiment: Cytokine release by H1N1-stimulated healthy volunteer PBMCs, 5 days (luminex); type: cell-based, human
[2] = system: PBMCs from healthy volunteers; type: cell-based, human
[3] = with IL-28B, 5-day H1N1, HV PBMCs n=9, median (IQR)

B1: IL-28B: recombinant IL-28B, a member of the interferon (IFN)-λ family (protein)
chain: VPVARLRGALPDARGCHIAQFKSLSPQELQAFKRAKDALEESLLLKDCKCRSRLFPRTWDLRQLQVRERPVALEAELALTLKVLEATADTDPALGDVLDQPLHTLHHILSQLRACIQPQPTAGPRTRGRLHHWLHRLQEAPKKESPGCLEASVTFNLFRLLTRDLNCVASGDLCV
modifications: left off: His tag, end not stated, kept
notes: recombinant IL-28B, a member of the interferon (IFN)-λ family
IL-12p40, ratio IL28/no IL28 ([1]; 5-day H1N1, p=0.44): 0.7 | MIP-1β, ratio IL28/no IL28 ([1]; 5-day H1N1, p=0.46): 1.2 | Eotaxin, ratio IL28/no IL28 ([1]; 5-day H1N1, p=0.47): 0.5 | MCP-1, ratio IL28/no IL28 ([1]; 5-day H1N1, p=0.55): 0.4 | TNF-α, ratio IL28/no IL28 ([1]; 5-day H1N1, p=0.55): 1.0 | IL-12p70, ratio IL28/no IL28 ([1]; 5-day H1N1, p=0.64): 0.7 | IL-17, ratio IL28/no IL28 ([1]; 5-day H1N1, p=0.69): 0.2 | MIP-1α, ratio IL28/no IL28 ([1]; 5-day H1N1, p=0.74): 1.1 | RANTES, ratio IL28/no IL28 ([1]; 5-day H1N1, p=0.74): 1.2 | G-CSF, ratio IL28/no IL28 ([1]; 5-day H1N1, p=0.75): 1.0 | IL-7, ratio IL28/no IL28 ([1]; 5-day H1N1, p=0.75): 1.0 | IL-1α, ratio IL28/no IL28 ([1]; 5-day H1N1, p=0.82): 1.1 | IL-10, ratio IL28/no IL28 ([1]; 5-day H1N1, p=0.82): 1.0 | VEGF, ratio IL28/no IL28 ([1]; 5-day H1N1, p=0.82): 1.2 | IL-1ra, ratio IL28/no IL28 ([1]; 5-day H1N1, p=0.84): 1.1 | IL-2, ratio IL28/no IL28 ([1]; 5-day H1N1, p=0.84): 2.0 | IL-8, ratio IL28/no IL28 ([1]; 5-day H1N1, p=0.95): 0.9 | PDGF AB/BB, ratio IL28/no IL28 ([1]; 5-day H1N1, p=0.95): 1.3 | EGF, ratio IL28/no IL28 ([1]; 5-day H1N1, p=1.00): 1.0 | MDC, ratio IL28/no IL28 ([1]; 5-day H1N1, p=1.00): 1.0 | Th2-cytokines (in words, abstract) ([1]; in vitro): suppressed Th2-cytokines (e.g. IL-4, IL-5, and IL-13) | EGF [1, 3]: 3.7 (3.7-3.7) pg/mL | Eotaxin [1, 3]: 3.2 (3.2-6.9) pg/mL | FGF2 [1, 3]: 13.1 (3.8-19.2) pg/mL | FLT3 [1, 3]: 4.0 (3.2-9.4) pg/mL | Fractalkine [1, 3]: 4.2 (0.6-10.7) pg/mL | G-CSF [1, 3]: 3.2 (3.2-4.2) pg/mL | GM-CSF [1, 3]: 358.9 (3.2-480.7) pg/mL | GRO [1, 3]: 3.6 (3.6-3.6) pg/mL | IFN-α2 [1, 3]: 2262.0 (808.2-3663.0) pg/mL | IFN-γ [1, 3]: 6028.0 (3513.0-9802.0) pg/mL | IL-1ra [1, 3]: 376.6 (3.2-838.8) pg/mL | IL-1α [1, 3]: 15.1 (7.8-18.6) pg/mL | IL-1β [1, 3]: 16.8 (6.8-29.2) pg/mL | IL-2 [1, 3]: 16.5 (0.6-60.4) pg/mL | IL-3 [1, 3]: 0.8 (0.6-3.5) pg/mL | IL-4 [1, 3]: 16.2 (6.1-33.1) pg/mL | IL-5 [1, 3]: 0.6 (0.6-8.3) pg/mL | IL-6 [1, 3]: 215.5 (69.4-864.5) pg/mL | IL-7 [1, 3]: 3.2 (3.2-3.2) pg/mL | IL-8 [1, 3]: 1308.0 (789.8-1567.0) pg/mL | IL-9 [1, 3]: 1.3 (0.6-6.7) pg/mL | IL-10 [1, 3]: 2597.0 (2063.0-4353.0) pg/mL | IL-12p40 [1, 3]: 3.2 (3.2-6.1) pg/mL | IL-12p70 [1, 3]: 1.6 (1.0-2.3) pg/mL | IL-13 [1, 3]: 96.8 (0.6-126.7) pg/mL | IL-15 [1, 3]: 2.7 (1.2-3.0) pg/mL | IL-17 [1, 3]: 0.6 (0.6-30.7) pg/mL | IP-10 [1, 3]: 219.8 (3.2-2804.0) pg/mL | MCP-1 [1, 3]: 53.8 (7.9-145.3) pg/mL | MCP-3 [1, 3]: 9988.0 (8889.0-12741.0) pg/mL | MDC [1, 3]: 16.0 (16.0-27.2) pg/mL | MIP-1α [1, 3]: 5759.0 (2283.0-6915.0) pg/mL | MIP-1β [1, 3]: 3575.0 (1795.0-5820.0) pg/mL | PDGF AA [1, 3]: 0.6 (0.6 – 0.6) pg/mL | PDGF AB/BB [1, 3]: 8.9 (1.3-18.2) pg/mL | RANTES [1, 3]: 3640.0 (1941.0-6677.0) pg/mL | TGF-α [1, 3]: 11.8 (9.7-17.0) pg/mL | TNF-α [1, 3]: 297.0 (3.1-449.6) pg/mL | TNF-β [1, 3]: 12.0 (1.0-27.4) pg/mL | VEGF [1, 3]: 34.6 (15.6-46.3) pg/mL | sCD40L [1, 3]: 253.0 (140.1-456.3) pg/mL | sIL2Ra [1, 3]: 192.2 (140.8-236.1) pg/mL | reduction of IgG-production ([2]; abstract, in vitro): > 70% | lower H1N1-stimulated IgG antibody production ([2]; highest dose of IL-28B (100 ng/mL), 5-day H1N1, n = 8): 70%
